Results as given in paper PMC4994250.

Molecular target: human CASKIN2 SAM1-SAM2 tandem (483-634), G537D/K540E double mutant (human) (UniProt Q8WXE0)
Assay: AUC; sedimentation velocity, 300 mM NaCl, 20 mM sodium phosphate pH 7.8, 20 °C, 50,000 rpm; 10 and 34 μM loading, Kd fitted from the 34 μM experiment; monomer-dimer equilibrium (dimer to monomers)

human CASKIN2 SAM1-SAM2 tandem (483-634), G537D/K540E double mutant (from UniProt Q8WXE0 483-634) (domain or fragment)
Kd: 99.8 µM
